Test results taken from patent US5719039A, “Enzyme-surfactant ion-pair complex catalyzed reactions in organic solvents” (University of Iowa Research Foundation, priority 1995, dated 1998).

B1: Subtilisin BPN': subtilisin BPN' (from Bacillus amyloliquefaciens) (protein, UniProt P00782 108-382, looked up)
Subtilisin BPN': AQSVPYGVSQIKAPALHSQGYTGSNVKVAVIDSGIDSSHPDLKVAGGASMVPSETNPFQDNNSHGTHVAGTVAALNNSIGVLGVAPSASLYAVKVLGADGSGQYSWIINGIEWAIANNMDVINMSLGGPSGSAALKAAVDKAVASGVVVVAAAGNEGTSGSSSTVGYPGKYPSVIAVGAVDSSNQRASFSSVGPELDVMAPGVSIQSTLPGNKYGAYNGTSMASPHVAGAAALILSKHPNWTNTQVRSSLENTTTKLGDSFYYGKGLINVQAAAQ
B2: papain: papain, pI of about 8.75 and maximal activity at pH 7.8 (protein, UniProt P00784 134-345, looked up)
Papain: IPEYVDWRQKGAVTPVKNQGSCGSCWAFSAVVTIEGIIKIRTGNLNEYSEQELLDCDRRSYGCNGGYPWSALQLVAQYGIHYRNTYPYEGVQRYCRSREKGPYAAKTDGVRQVQPYNEGALLYSIANQPVSVVLEAAGKDFQLYRGGIFVGPCGNKVDHAVAAVGYGPNYILIKNSWGTGWGENGYIRIKRGTGNSYGVCGLYTSSFYPVKN
B3: subtilisin Carlsberg: subtilisin Carlsberg (from Bacillus licheniformis) (protein, UniProt P00780 106-379, looked up)
Subtilisin Carlsberg: AQTVPYGIPLIKADKVQAQGFKGANVKVAVLDTGIQASHPDLNVVGGASFVAGEAYNTDGNGHGTHVAGTVAALDNTTGVLGVAPSVSLYAVKVLNSSGSGSYSGIVSGIEWATTNGMDVINMSLGGASGSTAMKQAVDNAYAKGVVVVAAAGNSGSSGNTNTIGYPAKYDSVIAVGAVDSNSNRASFSSVGAELEVMAPGAGVYSTYPTNTYATLNGTSMASPHVAGAAALILSKHPNLSASQVRNRLSSTATYLGSSFYYGKGLINVEAAAQ

Tests used:
[1] = target: CT (Bos taurus, UniProt P00766); experiment: Transesterification with CT pre-inactivated by PMSF; format: biochemical; details: PMSF 0.3 mM
Protocol: Values for kcat /Km were determined by nonlinear fit of the kinetic data and represent averages of triplicate measurements with standard deviations in each case of less than 5%. Initial rates of formation of N-acetyl-L-phenylalanine propyl ester were determined by gas chromatography (530-μm fused silica gum (Hewlett-Packard)). […] Saturation kinetics could not be determined for reactions with CT suspended in isooctane as the solubility limit for the substrate in this solvent is substantially below the Km of the enzyme.

[2] = Extraction of enzyme from aqueous solution into isooctane containing 2 mM AOT; format: physicochemical
[3] = source not stated; cited from earlier work
[4] = source not stated; cited from earlier work; remark: listed apart in the source
[5] = 1 mg/ml aqueous enzyme, pH 7.8, 2 mM CaCl2, 2 mM AOT in isooctane

Row | Molecule | reaction with pre-inactivated CT [1] | Extraction Yield (enzyme in organic phase) [2, 5] [mg/mL] | extraction ([2]; 1 mg/ml aqueous solution, pH 7.8, 2 mM AOT in isooctane) [%] | pH of maximal activity [3] | pI [4] | Extraction Yield (enzyme in organic phase) ([2]; 0.5 mg/ml aqueous papain, pH 7.8, CaCl2, MnCl2, KCl, 2 mM AOT in isooctane) [mg/mL]
1 | O=S(=O)(F)Cc1ccccc1 [phenylmethanesulfonyl fluoride] | No reaction was observed |  |  |  |  | 
2 | B1 |  | 0.4 | 40 | 7.8 | 9.4 | 
3 | B2 |  |  |  | 7.8 | about 8.75 | 0.35
4 | B3 |  | 0.3 |  | ~7.8 | 8.5 | 
